IC50 and Kd data for three molecules are collected here from patent publication US20070254831A1 (published 2007).

Experiment [1] addresses T1, soluble human FcRn (human, UniProt P55899 24-297; P61769 21-119, biotinylated (Sulfo-NHS-LC-Biotin) in the ELISA; amine-coupled to CM5 chip in SPR).
T1 construct: also called shFcRn; biotinylated shFcRn
The experiment in a line: ELISA, competitor human IgG. A general note: ELISA stands for enzyme-linked immunosorbent assay.
Protocol: (§1) The wells were coated with 100 μl/well of 1 μg/ml biotinylated-shFcRn in Buffer A. The plate was sealed and incubated at 37° C. for 2 hours. Afterwards, the plate washed with 200 μl/well of Buffer B (Buffer B: 100 mM MES pH 6, 150 mM NaCl, 0.5% BSA IgG-free (Jackson ImmunoResearch, West Grove, Pa.), 0.05% Tween-20). […] To allow for mixing, the plate was rocked for 2 minutes, sealed and incubated at 37° C. for 2 hours. […] The plate was covered, incubated for 30 minutes at room temperature and washed 4 times with 200 μl/well of ice-cold buffer B. SureBlue TMB substrate solution (100 μl/well, KPL, Gaithersburg, Md.) was added and the plate was allowed to incubate at room temperature until color developed, which took 5 to 10 minutes. Once color developed, 100 μl/well of TMB stop solution (KPL, Gaithersburg, Md.) was added and the absorbance was measured at 450 nm. The data was plotted as absorbance vs. peptide concentration to derive the inhibitory concentration 50% (IC₅₀) values.

In experiment [2] the target is T1, soluble human FcRn. The experiment in a line: ELISA, competitor human IgG. The source holds these as a separate data set.
Protocol: as §1
The target of experiment [3] is T1, soluble human FcRn. The experiment in a line: ELISA, competitor human IgG. The source holds these as a separate data set.
Protocol: as §1
The target in experiment [4] is T1, soluble human FcRn. The experiment in a line: SPR, pH 6. (In general: In SPR one partner is held on a chip, and binding of the other changes the refractive index at the surface.)
Protocol: (§2) The following steps were performed to cross-link soluble human or cynomolgus FcRn to the dextran surface of a CM5 sensor chip (Biacore AB, Uppsala, Sweden) by an amine coupling reaction involving 1-ethyl-(3-dimethylaminopropyl)-carbodiimide hydrochloride (EDC) (Biacore AB, Uppsala, Sweden) and N-hydroxysuccinimide (NHS) (Biacore AB, Uppsala, Sweden) as recommended by Biacore (BIAapplications Handbook, version AB, section 4.2, Biacore AB, Uppsala, Sweden). […] Residual sites on the FcRn flow cell were blocked with 1 M ethanolamine hydrochloride pH 8.5 (Biacore AB, Uppsala, Sweden). A control flow cell was blocked with ethanolamine for reference subtraction. For analysis of the monomeric peptides, FcRn was coated to a final density of 4000-5000 response units (RU). For analysis of the peptide dimers, FcRn was coated to a density of 2000-2500 RU. All SPR measurements were performed using a BIACORE 3000 Instrument (Biacore AB Uppsala, Sweden). For measurements done at either pH 6 or pH 7.4, experiments were performed in 50 mM phosphate, 100 mM sodium chloride, 0.01% surfactant P20 (Biacore AB, Uppsala, Sweden).
(§3) Ten, 2-fold dilutions of the peptide were injected over the FcRn-CM5 chip at a rate of 20 μl/min for 2 min. The peptide was dissociated from the chip for 2.5 minutes with buffer. Any remaining peptide was removed from the chip with a 30 second injection of HBS-P buffer (Biacore AB, Uppsala, Sweden) at a rate of 30 μl/min. Sensorgrams were generated and analyzed using BiaEval software version 3.1 (Biacore AB, Uppsala, Sweden). The equilibrium RU observed for each injection was plotted against concentration. The equilibrium KD values were derived by analysis of the plots using the steady state affinity model included in the BiaEval software.
In experiment [5] the target is T1, soluble human FcRn. The experiment in a line: ELISA, competitor human IgG. This is another data set of the same source.
Protocol: as §1
Experiment [6] addresses T1, soluble human FcRn. The experiment in a line: SPR, pH 6. This is another data set of the same source.
Protocol: as §2
(§4) Ten, 2-fold dilutions of the peptide were injected over the FcRn-CM5 chip at a rate of 20 μl/min for 2 min. The peptide was dissociated from the chip for 2.5 minutes with buffer. […] Sensorgrams were generated and analyzed using BiaEval software version 3.1 (Biacore AB, Uppsala, Sweden). […]
Experiment [7] has as its target T1, soluble human FcRn. The experiment in a line: ELISA, competitor human IgG. The source holds these as a separate data set.
Protocol: as §1
In experiment [8] the target is T1, soluble human FcRn. The experiment in a line: ELISA, competitor human IgG. This is another data set of the same source.
Protocol: as §1
In experiment [9] the target is T1, soluble human FcRn. The experiment in a line: SPR, pH 6. This is another data set of the same source.
Protocol: as §2, §3
Experiment [10] concerns the target T1, soluble human FcRn. The experiment in a line: SPR, pH 6. This is another data set of the same source.
Protocol: as §2, §4
For experiment [11], the target named is T1, soluble human FcRn. The experiment in a line: ELISA, competitor human IgG. The source holds these as a separate data set.
Protocol: as §1
For experiment [12], the target named is T1, soluble human FcRn. The experiment in a line: SPR, pH 6. This is another data set of the same source.
Protocol: as §2, §3
In experiment [13] the target is T1, soluble human FcRn. The experiment in a line: ELISA, competitor human IgG. The source holds these as a separate data set.
Protocol: as §1
The target of experiment [14] is T1, soluble human FcRn. The experiment in a line: SPR, pH 6. This is another data set of the same source.
Protocol: as §2, §4
Experiment [15] deals with T1, soluble human FcRn. The experiment in a line: ELISA, competitor human IgG. The source holds these as a separate data set.
Protocol: as §1
Experiment [16] deals with T1, soluble human FcRn. The experiment in a line: SPR, pH 6. This is another data set of the same source.
Protocol: as §2, §3
In experiment [17] the target is T1, soluble human FcRn. The experiment in a line: ELISA, competitor human IgG. The source holds these as a separate data set.
Protocol: as §1
Experiment [18] concerns the target T1, soluble human FcRn. The experiment in a line: SPR, pH 6. The source holds these as a separate data set.
Protocol: as §2, §3
Experiment [19] deals with T1, soluble human FcRn. The experiment in a line: SPR, pH 6. This is another data set of the same source.
Protocol: as §2, §3
Experiment [20] has as its target T1, soluble human FcRn. The experiment in a line: SPR, pH 6. This is another data set of the same source.
Protocol: as §2, §3
Experiment [21] concerns the target T1, soluble human FcRn. The experiment in a line: ELISA, competitor human IgG. The source holds these as a separate data set.
Protocol: as §1
Experiment [22] deals with T1, soluble human FcRn. The experiment in a line: SPR, pH 6. The source holds these as a separate data set.
Protocol: as §2, §3
For experiment [23], the target named is T1, soluble human FcRn. The experiment in a line: assay not named for Table 26, taken as the IgG competition ELISA.
Experiment [24] has as its target T1, soluble human FcRn. The experiment in a line: SPR, pH 6. The source holds these as a separate data set.
Protocol: as §2, §3
Experiment [25] concerns the target T1, soluble human FcRn. The experiment in a line: SPR, pH 7.4.
Protocol: as §2, §3
Experiment [26] addresses T1, soluble human FcRn. The experiment in a line: SPR, pH 7.4. This is another data set of the same source.
Protocol: as §2, §3
For experiment [27], the target named is T1, soluble human FcRn. The experiment in a line: SPR, pH 7.4. The source holds these as a separate data set.
Protocol: as §2, §3
Experiment [28] has as its target T1, soluble human FcRn. The experiment in a line: SPR, pH 7.4. The source holds these as a separate data set.
Protocol: as §2, §4
Experiment [29] has as its target T1, soluble human FcRn. The experiment in a line: SPR, pH 6. This is another data set of the same source.
Protocol: as §2, §4
In experiment [30] the target is T1, soluble human FcRn. The experiment in a line: SPR, pH 7.4. The source holds these as a separate data set.
Protocol: as §2, §3
Experiment [31] concerns the target T1, soluble human FcRn. The experiment in a line: SPR, pH 6. The source holds these as a separate data set.
Protocol: as §2, §3
The target in experiment [32] is T1, soluble human FcRn. The experiment in a line: SPR, pH 7.4. The source holds these as a separate data set.
Protocol: as §2, §3
Experiment [33] addresses T1, soluble human FcRn. The experiment in a line: SPR, pH 7.4. This is another data set of the same source.
Protocol: as §2, §4
Experiment [34] deals with T1, soluble human FcRn. The experiment in a line: SPR, pH 6. The source holds these as a separate data set.
Protocol: as §2, §3
Experiment [35] deals with T1, soluble human FcRn. The experiment in a line: SPR, pH 7.4. The source holds these as a separate data set.
Protocol: as §2, §4

Bridge positions count the residues as written; N and C are the ends. Ends that are not written are not given here.

T1 sequence (P55899 24-297 limits assumed, chain 1 of 2): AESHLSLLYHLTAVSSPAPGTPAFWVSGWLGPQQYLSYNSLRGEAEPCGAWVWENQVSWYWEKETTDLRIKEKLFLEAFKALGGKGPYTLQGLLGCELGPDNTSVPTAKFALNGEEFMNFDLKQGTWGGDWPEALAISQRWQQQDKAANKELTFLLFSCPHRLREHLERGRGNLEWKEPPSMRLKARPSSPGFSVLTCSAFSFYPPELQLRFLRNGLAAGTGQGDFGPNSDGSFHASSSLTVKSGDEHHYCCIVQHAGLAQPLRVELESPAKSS
T1 sequence (P61769 21-119 limits assumed, chain 2 of 2): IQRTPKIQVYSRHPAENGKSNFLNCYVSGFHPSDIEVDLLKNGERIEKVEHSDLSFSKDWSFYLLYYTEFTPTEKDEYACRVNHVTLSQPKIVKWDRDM

B1: Peptide No. 32 (peptide)
peptide: QRFXTGHFGGLYPCNGP
modifications: Pen (L-penicillamine) at 4; disulfide; C-terminal amide
For orientation: IC50 means the point on the concentration scale where inhibition reaches its midpoint. High values mean a need for much substance, low ones inhibition by little substance. In general, Kd refers to a measure of binding affinity in units of concentration. Consider B1, for which the IC50 with soluble human FcRn [1], with soluble human FcRn [2], with soluble human FcRn [3], with soluble human FcRn [5], with soluble human FcRn [7] and with soluble human FcRn [8] was 2 µM each time. The IC50 with soluble human FcRn [11], in the experiment with soluble human FcRn [13], with soluble human FcRn [15], with soluble human FcRn [17] and with soluble human FcRn [21] was 2 µM in each case. For the same molecule, the dissociation constant Kd with soluble human FcRn [4], in the experiment with soluble human FcRn [6], with soluble human FcRn [9], in the experiment with soluble human FcRn [10], with soluble human FcRn [12] and with soluble human FcRn [14] was 0.25 µM in each case. Moreover, the Kd in the experiment with soluble human FcRn [16], in the experiment with soluble human FcRn [18], with soluble human FcRn [19], in the experiment with soluble human FcRn [20] and with soluble human FcRn [22] was 0.25 µM each time.

B2: Peptide No. 289 (peptide)
peptide: RFXTGHFGGLYPC
modifications: not fully specified; Pen at 3; Sar at 9; NMeLeu at 10; intrachain disulfide; C-terminal amide; N-termini joined by an Asp linker that carries PEG 30 kDa
notes: structure only as drawing CHEM-US-00138; also called Pegylated Analog of Peptide No. 285
On to B2, for which the IC50 in the experiment with soluble human FcRn [23] was determined as 0.018 µM.

B3: SEQ ID NO:1 (peptide)
peptide: QRFCTGHFGGLYPCNGP-NH2
modifications: disulfide 4-14 (inferred)
Consider B3, for which the Kd with soluble human FcRn [24] stood at 5.1 µM; with soluble human FcRn [25], 30 µM; in the experiment with soluble human FcRn [9], 5.1 µM; in the experiment with soluble human FcRn [12], 5.1 µM; in the experiment with soluble human FcRn [26], 30 µM; with soluble human FcRn [27] it was 30 µM. Besides, the Kd worked out at 30 µM in the experiment with soluble human FcRn [28]; 5.1 µM with soluble human FcRn [29]; 30 µM in the experiment with soluble human FcRn [30]; 5.1 µM with soluble human FcRn [31]; 5.1 µM with soluble human FcRn [16]; 30 µM in the experiment with soluble human FcRn [32]. Moreover, the Kd was 30 µM in the experiment with soluble human FcRn [33], 5.1 µM in the experiment with soluble human FcRn [34], 30 µM with soluble human FcRn [35] and 5.1 µM in the experiment with soluble human FcRn [18].
